The results in this text go back to patent US20100272750A1.

One assay has as its target HLA DRB1*1302 (human). Put plainly: competition with 125I probe peptide, purified HLA.
Assay [1] concerns the target HLA DRB1*0101 (human). Put plainly: competition with 125I probe peptide, purified HLA.
In assay [2] the target is HLA DRB4*0101 (human). In words: competition with 125I probe peptide, purified HLA.
The next assay deals with HLA DRB1*0301 (human). In words: competition with 125I probe peptide, purified HLA.
Assay [3] concerns the target HLA DRB1*0405 (human). Put plainly: competition with 125I probe peptide, purified HLA.
In the next assay the target is HLA DRB3*0101 (human). Put plainly: competition with 125I probe peptide, purified HLA.
The target of a further assay is HLA DRB5*0101 (human). In words: competition with 125I probe peptide, purified HLA.
For assay [4], the target named is HLA DRB1*0901 (human). In words: competition with 125I probe peptide, purified HLA.
The target of assay [5] is HLA DRB1*0404 (human). In words: competition with 125I probe peptide, purified HLA.
The target in assay [6] is HLA DRB1*1101 (human). In words: competition with 125I probe peptide, purified HLA.
The target of assay [7] is HLA DRB1*1501 (human). In words: competition with 125I probe peptide, purified HLA.
In assay [8] the target is HLA DRB1*0802 (human). Put plainly: competition with 125I probe peptide, purified HLA.
In assay [9] the target is HLA DRB1*1201 (human). Put plainly: competition with 125I probe peptide, purified HLA.
Assay [10] concerns the target HLA DRB1*0701 (human). Put plainly: competition with 125I probe peptide, purified HLA.
Assay [11] deals with HLA DRB1*0401 (human). In words: competition with 125I probe peptide, purified HLA.
The target in assay [12] is HLA DRB1*0101 (human). In words: competition with 125I probe peptide, purified HLA; crude peptide batch.
In assay [13] the target is HLA DRB4*0101 (human). The description is as above.
Assay [14] deals with HLA DRB1*0405 (human). Described as above.
The target of assay [15] is HLA DRB1*0901 (human). Described as above.
Assay [16] deals with HLA DRB1*0404 (human). The assay is described as above.
Assay [17] concerns the target HLA DRB1*1101 (human). The description is as above.
For assay [18], the target named is HLA DRB1*1501 (human). The assay is described as above.
Assay [19] concerns the target HLA DRB1*0802 (human). Described as above.
The target in assay [20] is HLA DRB1*1201 (human). Described as above.
Assay [21] deals with HLA DRB1*0701 (human). Described as above.
Assay [22] concerns the target HLA DRB1*0401 (human). The description is as above.

A word on the IC50: it is the concentration that inhibits the measured activity by half. Read a high IC50 as weaker potency in that assay. For the molecule TGRCIACWRRPRTET (modifications not checked) [HPV31.E6.132 HTL epitope], the IC50 in the assay with HLA DRB1*1302 (human) amounted to 2770 nM; in the assay with HLA DRB1*0101 (human) [1], 3170 nM; in the assay with HLA DRB4*0101 (human) [2], 225 nM; in the assay with HLA DRB1*0301 (human), 1030 nM; with HLA DRB1*0405 (human) [3] it was 733 nM; with HLA DRB3*0101 (human), 5960 nM. Further, the IC50 was 6050 nM with HLA DRB5*0101 (human); 13600 nM in the assay with HLA DRB1*0901 (human) [4]; 1150 nM in the assay with HLA DRB1*0404 (human) [5]; 158 nM with HLA DRB1*1101 (human) [6]; 84 nM in the assay with HLA DRB1*1501 (human) [7]; 512 nM with HLA DRB1*0802 (human) [8]. Besides, the IC50 in the assay with HLA DRB1*1201 (human) [9] was 4950 nM; with HLA DRB1*0701 (human) [10] it was 11500 nM; with HLA DRB1*0401 (human) [11], 758 nM.
As to DWVMAIFGVNPTVAEGF (modifications not checked) [HPV45.E1.228 HTL epitope], the concentration for half-maximal inhibition (IC50) with HLA DRB1*1302 (human) amounted to 68 nM; with HLA DRB1*0101 (human) [1], 487 nM; in the assay with HLA DRB4*0101 (human) [2], 571 nM; in the assay with HLA DRB1*0301 (human), 3750 nM; with HLA DRB1*0405 (human) [3] it was 92 nM; in the assay with HLA DRB5*0101 (human) it was 387 nM. For the same molecule, the concentration for half-maximal inhibition (IC50) with HLA DRB1*0901 (human) [4] was 17900 nM; in the assay with HLA DRB1*0404 (human) [5], 20 nM; with HLA DRB1*1101 (human) [6], 4960 nM; with HLA DRB1*1501 (human) [7] it was 108 nM; with HLA DRB1*0802 (human) [8], 4260 nM; with HLA DRB1*0701 (human) [10] it was 52 nM. In addition, the 50% inhibitory concentration (IC50) with HLA DRB1*0401 (human) [11] was 91 nM.
As for WKHIRLECVLMYKAR (modifications not checked) [HPV31.E2.033 HTL epitope], the half-inhibitory concentration (IC50) came to 54 nM with HLA DRB1*1302 (human); 1440 nM with HLA DRB1*0101 (human) [1]; 102 nM with HLA DRB4*0101 (human) [2]; 146 nM with HLA DRB1*0301 (human); 71 nM in the assay with HLA DRB1*0405 (human) [3]; 412 nM with HLA DRB5*0101 (human). The 50% inhibitory concentration (IC50) with HLA DRB1*0901 (human) [4] came out at 11800 nM; in the assay with HLA DRB1*0404 (human) [5], 307 nM; with HLA DRB1*1101 (human) [6], 81 nM; in the assay with HLA DRB1*1501 (human) [7], 134 nM; with HLA DRB1*0802 (human) [8], 476 nM; in the assay with HLA DRB1*0701 (human) [10] it was 16400 nM. The IC50 in the assay with HLA DRB1*0401 (human) [11] is 263 nM.
In the case of QRFHNIRGRWTGRCM (modifications not checked) [HPV16.E6.130 HTL epitope], the 50% inhibitory concentration (IC50) in the assay with HLA DRB1*1302 (human) was 5310 nM; with HLA DRB1*0101 (human) [1], 36 nM; in the assay with HLA DRB4*0101 (human) [2], 4550 nM; with HLA DRB1*0405 (human) [3], 4470 nM; in the assay with HLA DRB5*0101 (human), 919 nM; with HLA DRB1*0404 (human) [5], 4110 nM. In addition, the 50% inhibitory concentration (IC50) is 574 nM with HLA DRB1*1101 (human) [6]; 17200 nM in the assay with HLA DRB1*1501 (human) [7]; 894 nM in the assay with HLA DRB1*0802 (human) [8]; 14600 nM with HLA DRB1*1201 (human) [9]; 277 nM with HLA DRB1*0701 (human) [10]; 2900 nM in the assay with HLA DRB1*0401 (human) [11].
FHSIAGQYRGQCNTC (modifications not checked) [HPV45.E6.127 HTL epitope]: the IC50 with HLA DRB1*0101 (human) [1] is 107 nM; with HLA DRB4*0101 (human) [2], 1300 nM; with HLA DRB1*0405 (human) [3], 358 nM; with HLA DRB5*0101 (human), 43 nM; in the assay with HLA DRB1*0901 (human) [4], 1990 nM; in the assay with HLA DRB1*0404 (human) [5] it was 3300 nM. Besides, the IC50 in the assay with HLA DRB1*1101 (human) [6] turned out to be 416 nM; with HLA DRB1*1501 (human) [7] it was 574 nM; in the assay with HLA DRB1*0802 (human) [8], 7640 nM; with HLA DRB1*1201 (human) [9], 10100 nM; with HLA DRB1*0701 (human) [10] it was 2400 nM; with HLA DRB1*0401 (human) [11] it was 8.6 nM.
As for LQAIELQLTLETIYN (modifications not checked) [HPV16.E2.070 HTL epitope], the IC50 was 42 nM with HLA DRB1*0101 (human) [12]; 2 nM with HLA DRB4*0101 (human) [13]; 384 nM in the assay with HLA DRB1*0405 (human) [14]; 1430 nM in the assay with HLA DRB1*0901 (human) [15]; 282 nM in the assay with HLA DRB1*0404 (human) [16]; 4380 nM in the assay with HLA DRB1*1101 (human) [17]. For the same molecule, the IC50 with HLA DRB1*1501 (human) [18] came out at 688 nM; in the assay with HLA DRB1*0802 (human) [19], 7610 nM; with HLA DRB1*1201 (human) [20] it was 268 nM; with HLA DRB1*0701 (human) [21], 3280 nM; with HLA DRB1*0401 (human) [22], 37 nM.
Consider WKHMRLECAIYYKAR (modifications not checked) [HPV16.E2.033 HTL epitope], for which the IC50 was 248 nM with HLA DRB1*1302 (human); 701 nM with HLA DRB1*0101 (human) [1]; 766 nM with HLA DRB4*0101 (human) [2]; 437 nM with HLA DRB1*0301 (human); 557 nM in the assay with HLA DRB1*0405 (human) [3]; 280 nM with HLA DRB5*0101 (human). Further, the half-maximal inhibitory concentration (IC50) in the assay with HLA DRB1*0901 (human) [4] was found to be 6340 nM; with HLA DRB1*0404 (human) [5], 6860 nM; in the assay with HLA DRB1*1101 (human) [6], 2400 nM; with HLA DRB1*1501 (human) [7], 1390 nM; in the assay with HLA DRB1*0802 (human) [8], 90 nM; in the assay with HLA DRB1*0701 (human) [10], 504 nM. Moreover, the half-inhibitory concentration (IC50) in the assay with HLA DRB1*0401 (human) [11] amounted to 245 nM.
